We go through 27 sequences from the supplement of paper PMC9732359.

The nature of this data set: protein stability index of a GFP-peptide fusion (yeast GPS) (PSI 1-4); higher = more stable; sorted into four equal gates, so the index is relative within each strain. The method in brief: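 Sequencing reads from sorted gates were used to score each peptide. The library consisted of tiled 17-residue yeast protein peptides fused downstream of GFP on a Cherry-expressing plasmid, pooled and carried in yeast. Mid-log cultures in leucine-free medium were split into four equal gates by GFP/Cherry ratio, and each gate's plasmids were PCR-amplified and Illumina-sequenced. The protein stability index adds up, over all gates, the read frequency multiplied by the gate number.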

± gives the uncertainty stated by the source.

For ALSLHREILCYSKDAKE [FAS2], the protein stability index is, setting by setting: (doa10∆) 1.78 ± 0.028; (pdr5∆) 1.76 ± 0.027; (san1∆) 1.85 ± 0.044; (ubr1∆) 1.82 ± 0.021.

VMTISSLEQRTLNPDLF [RPC82]: the protein stability index (pdr5∆) was determined as 3.1 ± 0.28.

For the sequence EAESLLQFHVATYMDND [RPO21], the protein stability index by setting is: (doa10∆) 2.82 ± 0.1; (pdr5∆) 2.7 ± 0.13; (san1∆) 2.7 ± 0.073; (ubr1∆) 2.94 ± 0.15.

As for KIRARSITLQGDVYDPE [SMC2], the protein stability index amounted to 2.07 ± 0.065 (doa10∆), 2.19 ± 0.059 (pdr5∆), 1.79 ± 0.16 (san1∆) and 1.86 ± 0.067 (ubr1∆).

In the case of LFGSPPFILEYDLMAPN [YMR129W/POM152], the protein stability index reads like this: (doa10∆) 2.74 ± 0.075; (pdr5∆) 2.9 ± 0.094; (ubr1∆) 2.94 ± 0.074.

For the sequence KVLRKFRVQSQSNYGIY [NUT1], the protein stability index is, setting by setting: (doa10∆) 1.85 ± 0.053; (pdr5∆) 2.29 ± 0.071; (san1∆) 1.34 ± 0.11; (ubr1∆) 2.3 ± 0.14.

In the case of SELAPIEEHPTVVDAID [IRR1], the protein stability index (pdr5∆) was determined as 3.62 ± 0.19, the protein stability index (san1∆) came to 3.25 ± 0.11 and the protein stability index (ubr1∆) was found to be 3.05 ± 0.071.

On to LIEPLPTESYLQYIIHD [BRR2], for which the protein stability index is, setting by setting: (doa10∆) 2.42 ± 0.083; (pdr5∆) 2.96 ± 0.065; (san1∆) 2.58 ± 0.096; (ubr1∆) 2.49 ± 0.049.

Consider FGHLKLALPVFHIGYFK [RPO31], for which the protein stability index worked out at 1.17 ± 0.073 (doa10∆), 1.22 ± 0.062 (pdr5∆), 1.24 ± 0.13 (san1∆) and 1.13 ± 0.043 (ubr1∆).

Regarding LERTDLKSKVIDSPELL [RPN7], the protein stability index is 3.17 ± 0.073 (doa10∆), 3.01 ± 0.083 (pdr5∆), 3.26 ± 0.085 (san1∆) and 3.2 ± 0.076 (ubr1∆).

For the sequence FRSLFFRSYMDQEKKYG [RPB2], the protein stability index (doa10∆) was 1.7 ± 0.051, the protein stability index (pdr5∆) was 2.14 ± 0.07, the protein stability index (san1∆) was found to be 2.61 ± 0.078 and the protein stability index (ubr1∆) worked out at 2.57 ± 0.038.

For MVQQLSLFGSIGDDGYD [SRB5], the protein stability index was 3.17 ± 0.1 (doa10∆), 3.26 ± 0.13 (pdr5∆), 3.16 ± 0.057 (san1∆) and 3.47 ± 0.085 (ubr1∆).

For the sequence GNRYLEKRLNLRVEHIK [RPL21A], the protein stability index was 3.05 ± 0.077 (doa10∆), 2.96 ± 0.086 (pdr5∆), 3.08 ± 0.075 (san1∆) and 3.05 ± 0.071 (ubr1∆).

Consider LVCGNDSSYQDIFAVNL [RET1], for which the protein stability index is, setting by setting: (pdr5∆) 2.04 ± 0.25; (san1∆) 2.24 ± 0.26.

For SLMDTLITPAVRNTAPN [YCG1], the protein stability index reads like this: (doa10∆) 1.6 ± 0.061; (pdr5∆) 1.73 ± 0.082; (san1∆) 1.26 ± 0.19; (ubr1∆) 1.92 ± 0.058.

As for VPNSIGNIFSNIGTPSF [SNF5], the protein stability index (doa10∆) came to 2.8 ± 0.11, the protein stability index (pdr5∆) was 2.6 ± 0.1, the protein stability index (san1∆) was 1.33 ± 0.15 and the protein stability index (ubr1∆) came out at 2.79 ± 0.061.

Consider GIKPPKGVLLYGPPGTG [RPT4], for which the protein stability index is 2.73 ± 0.13 (doa10∆), 2.62 ± 0.072 (pdr5∆), 2.22 ± 0.22 (san1∆) and 2.01 ± 0.075 (ubr1∆).

Turning to FNVDDVLKFTFTGEKPI [MED8], the protein stability index reads like this: (doa10∆) 3.16 ± 0.094; (pdr5∆) 3.02 ± 0.097; (san1∆) 3.29 ± 0.048; (ubr1∆) 2.98 ± 0.068.

With YIIQGSNTNDNISIITL [RGR1], the protein stability index came out at 2.77 ± 0.075 (doa10∆), 2.29 ± 0.083 (pdr5∆), 2.19 ± 0.15 (san1∆) and 2.22 ± 0.063 (ubr1∆).

Turning to LGLEYIIRLLPINLENN [SRB8], the protein stability index amounted to 1.67 ± 0.07 (doa10∆), 1.33 ± 0.058 (pdr5∆), 1.24 ± 0.096 (san1∆) and 1.39 ± 0.061 (ubr1∆).

CVYSGLIPDGRHLVNRG [PRE10]: the protein stability index is, setting by setting: (pdr5∆) 1.82 ± 0.22; (san1∆) 2.1 ± 0.14.

For the sequence LRPLFTRYELYIKNILE [YLR335W/NUP2], the protein stability index is 1.6 ± 0.053 (doa10∆), 1.88 ± 0.044 (pdr5∆), 1.8 ± 0.081 (san1∆) and 1.93 ± 0.033 (ubr1∆).

Regarding VISTIENVLFYIGRVNK [COB], the protein stability index turned out to be 1.92 ± 0.069 (doa10∆), 1.89 ± 0.052 (pdr5∆), 2.43 ± 0.058 (san1∆) and 2.62 ± 0.065 (ubr1∆).

With TIFSVMVEWLESRSFSP [PRP8], the protein stability index was found to be 2.13 ± 0.077 (doa10∆), 1.99 ± 0.094 (pdr5∆), 2.15 ± 0.15 (san1∆) and 1.88 ± 0.059 (ubr1∆).

Turning to ADGSSYMEQGNNKIITL [SKI6], the protein stability index is, setting by setting: (doa10∆) 2.79 ± 0.044; (pdr5∆) 3.07 ± 0.059; (san1∆) 2.82 ± 0.04; (ubr1∆) 3.015 ± 0.029.

Sequence QFQKARNNVMLLIATNL [SRB8] registered a protein stability index (doa10∆) of 1.74 ± 0.11, a protein stability index (pdr5∆) of 1.81 ± 0.1, a protein stability index (san1∆) of 2.24 ± 0.13 and a protein stability index (ubr1∆) of 1.93 ± 0.071.

With ISLLCKNFKGIEEIEYN [PCI8], the protein stability index is, setting by setting: (doa10∆) 2.94 ± 0.082; (pdr5∆) 3.31 ± 0.075; (san1∆) 3.11 ± 0.04; (ubr1∆) 3.01 ± 0.061.
